Assay: yeast display, Sf9 membrane polyspecificity reagent, FACS + sequencing; frameworks hold sequencing errors
In short: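 Nanobodies came from a synthetic yeast display library in Saccharomyces cerevisiae BJ5465, induced with galactose for 36–48 hours and stained for 1 hour at 4 °C with 10% biotinylated, detergent-solubilized Sf9 membrane reagent. Cells were enriched on streptavidin microbeads and then FACS-sorted, with low and high (top ~1%) gates set on anti-HA fluorescence for expression and streptavidin fluorescence for reagent binding. Each polyreactivity label reflects the gate a clone came from. Genes were amplified by colony PCR, sequenced by MiSeq 2 × 250 and filtered by CDR length.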

Row | Sequence | polyreactivity (PSR sort gate)
1 | QVQLVESGGGLVQAGGSLRLSCAASGLIFVWYAMGWYRQAPGKERELVAAISWSGGSTYYADSVKGRFTISRDNAKTTVYLQMNSLKPEDTAVYYCATDPFGYSYLLVDYNYWGQGTQVTVSS | low polyreactivity
2 | QVQLVESGGGLVQAGGSLRLSCAASGLIFVYYAMGWYRQAPGKERELVAAITSRGGSTYYADSVKGRFTISRDNAKNTVYLQMNSLKPEDTAVYYCAAVYRHGAFPRYGYWGQGTQVTVSS | high polyreactivity
3 | QVQLVESGGGLVQAGGSLRLSCAASGLIFVYYDMGWYRQAPGKERELVAAISSSGSTYYADSVKGRFTISRDNAKNTVYLQMNSLKPEDTAVYYCAAEYLYWPFGSNYWGQGTQVTVSS | high polyreactivity
4 | QVQLVESGGGLVQAGGSLRLSCAASGLIFVYYTMGWYRQAPGKERELVARISQSGGTTYYADSVKRRFTISRDNAKNTVYLQLNSLKREDTAVYYCAAVYQLYYSGGRYYYWGQGSQVTVSS | high polyreactivity
5 | QVQLVESGGGLVQAGGSLRLSCAASGLIFWGYAMGWYRQAPGKERELVAAISSSGGSTYYADSVKGRFTISRDNAKNTVYLQMNSLKPEDTAVYYCNADYTYYPGYDYWGQGTQVTVSS | low polyreactivity
6 | QVQLVESGGGLVQAGGSLRLSCAASGLIFWYYAMGWYRQAPGKERELVAVITRSDASTYYADSVKGRFTISRDNAKNTVYVQMNSLKPEDTAVYYCAAYIRYGYSPWGYDYWGQGTQVSVSS | low polyreactivity
7 | QVQLVESGGGLVQAGGSLRLSCAASGLIFYDNMGWYIQAPGKEREMVAAISSSGGSTSYADSVKGRFTISRDNAKNTVYLQMNSLKPEDTAVYYCAADSYPAYLGFVGFDYWGQGTQVTVSS | low polyreactivity
8 | QVQLVESGGGLVQAGGSLRLSCAASGLIFYDNMGWYRQAPGKERELVAAISSSGGSTSYADSVKGRFTISRDNAKKTVYLQMNSLKPEDTAVYYCAAKWSHVRDGPKYDYWGQGTQVTVSS | low polyreactivity
9 | QVQLVESGGGLVQAGGSLRLSCAASGLIFYDNMGWYRQAPGKERELVAAISSSGGSTSYADSVKGRFTISRDNAKNTVYLQMNSLKPEDTAVYFCAADSYPAYLGFVGFDYWGQGTQVTVSS | low polyreactivity
10 | QVQLVESGGGLVQAGGSLRLSCAASGLIFYDNMGWYRQAPGNERELVAAITVSGGATYYADSVKGRFTISRDNAKNTVYLQMNSLKPEDTAVYYCARELLSPTYQRWYYYWGQGTQVTVSS | low polyreactivity
11 | QVQLVESGGGLVQAGGSLRLSCAASGLIFYENAMGWYRQAPGKERELVAAINYDGDSTYYADSVKGRFTISRDNAKNTVYLQMNSLKPEDTAVYYCAADGGWVLFWMDYWGQGTQVTVSS | low polyreactivity
12 | QVQLVESGGGLVQAGGSLRLSCAASGLIFYGNAMGWYREAPGKERELVAAISRRGGRTYYADSVKGRYTISRDNAKNTVYLQMNSLKPEDTAVYYCAAGVPKNGQAGYDYWGQGTQVTVSS | high polyreactivity
13 | QVQLVESGGGLVQAGGSLRLSCAASGLIFYGYVMGWYRQAPGKERELVAGISRNSGSTYYADSVKGRFTISRDNAKTTVYLQMNSLKPEDTAVYYCAKAYYRRYAAPGYDYWGQGTQVTVSS | low polyreactivity
14 | QVQLVESGGGLVQAGGSLRLSCAASGLIFYLYAMGWYRQAPGKERELVAAITSGGGSTYYADSVKGRFTISRDNAKNTVYLQMNSLKPEDTAVYYCAARLVLYITVVYEDDYWGQGTQVTVSS | low polyreactivity
15 | QVQLVESGGGLVQAGGSLRLSCAASGLIFYLYTMGWYRQAPGQERELVAAISRSGGSTYYADSVKGRFTISRDNAKNTVYVQMNSLKPEDPAVYYCAALRSRSTYNDYNYWGQGTQVTVSS | high polyreactivity
16 | QVQLVESGGGLVQAGGSLRLSCAASGLIFYRNAMGWYRQAPGKERELVAAIRFSTGSTYYADSVKGRFTISRDNAKNTVYLQMNSLKPEDTAVYYCAADRRYYWYNYWGQGTQVNVSS | high polyreactivity
17 | QVQLVESGGGLVQAGGSLRLSCAASGLIFYRNAMGWYRQAPGKERELVAAISVSGGRTYYADSVKGRFTISRDNAKNTVYLQMNSLKPEDTAVYYCAAYGTTRMDYWGQGTQVTVSS | high polyreactivity
18 | QVQLVESGGGLVQAGGSLRLSCAASGLIFYRYAMGWYRQAPGKERELVAAISARGSSTYYADSVKGRFTISRDNAKNTVYLQMNSLKPEDTAVYYCAAGATGTSYYGGDYWGQGTQVTVSS | high polyreactivity
19 | QVQLVESGGGLVQAGGSLRLSCAASGLIFYRYTMGWYRQAPGKERELVAAITSTGTSTYYADSVKGRFTISRDNAKNTVYLQMNSLKPEDTAVYYCAARYIARGKWDYDYWGQGTQVTVSS | high polyreactivity
20 | QVQLVESGGGLVQAGGSLRLSCAASGLIFYRYVMGWYRQAPGKEREFVAAISSGGSTYYADSVKGLFTISRDNAKNTVYLQMNSLKPEDTAVYYCNTLSQVFASRAPKFDYWGQGTQVTVSS | high polyreactivity
21 | QVQLVESGGGLVQAGGSLRLSCAASGLIFYVYAMGWYRQAPGKERELVATISSSGGSTYYADSVKGRFTISRDNAKNTVYLQMNSLKPEDTAVYYCAARWSHYRTGWGDTSYHYYYWGQGTQVTVSS | high polyreactivity
22 | QVQLVESGGGLVQAGGSLRLSCAASGLIFYYYAMGWYRQAPGKERELVAAITAIGDRTYYADSVKGRFTISRDNAKNTVYLQMNSLKPEDTAVYYCAAGWLLYNRYGIITYDYWGQGTQVTVSS | high polyreactivity

Row | Sequence | polyreactivity (PSR sort gate)
23 | QVQLVESGGGLVQAGGSLRLSCAASGLIFYYYAMGWYRQAPGKERELVAAITTGGGTYYADSVKGRFTISRDNAKNTVYLQMNSLKPEDTAVYYCAVYYRSYWGYEYWGQGTQVTVSS | high polyreactivity
24 | QVQLVESGGGLVQAGGSLRLSCAASGLIIDGYAMGWSRQAPGKERELVATITVSGTSTYYADSVKGRFTISRDNAKNTVYLQMNSLKPEDTAVYYFATDRNYGYYFVEYDHDYWGQGTQVTVSS | low polyreactivity
25 | QVQLVESGGGLVQAGGSLRLSCAASGLIIRYYAMGWYRQAPGKERELVAAISYNGGSTYYADSVKGRFTISRDNAKNTVYLQMNSLKPEDTAVYYCAARGRYRIGPGRYGKRYDYWGQGTQVTVSS | high polyreactivity
26 | QVQLVESGGGLVQAGGSLRLSCAASGLILDGYAMGWYRQAPGKERELVAAITRSGGRTYYADSVKGRFTISRDNAKNTVYLQMKSLKPEDPAVYYCAALGWSGRYRYDYWGQGTQVTVSS | high polyreactivity
27 | QVQLVESGGGLVQAGGSLRLSCAASGLILGVYTMGWYRQAPGKEREFVASINYGGGSTYYADSVKGRFTISRDNAKNTVYLQMNSLKPEDTAVYYCNARSRWGGTRLYSYDYWGQGTQVTVSS | low polyreactivity
28 | QVQLVESGGGLVQAGGSLRLSCAASGLILGYYAMGWYRQAPGKERELVAAISSTGSTNYADSVKGRFTISRDNAKNTVYLQMNSLKPEDTAVYYCAAVPPRKDYQHMDYWGQGTQVTVSS | low polyreactivity
29 | QVQLVESGGGLVQAGGSLRLSCAASGLILPYYAMGWYSQARGKERELVAAISRTGGRTSYADSVKVRFTISRDNAKNTVYLLINSLKPEDTAVYYCAAVGQSGGRRYDYWGQGTQVTVSS | high polyreactivity
30 | QVQLVESGGGLVQAGGSLRLSCAASGLILPYYTMGWYRQAPGTERELVAAITWGGDSTYYADSVKGRFTISRDNAKNTVYLQMNRLKPEDTAVFYCAAYPQRRFYWQYRYDYWGQGTQVTGSS | high polyreactivity
31 | QVQLVESGGGLVQAGGSLRLSCAASGLILQYYVMGWYRQAPGKERELVAAITRSGGGTYYADSVKGRFTISRDKAKNTVYLQMNSLIPEDTAVYYCAAQRQYGKFDYWGQGTQVTVSS | high polyreactivity
32 | QVQLVESGGGLVQAGGSLRLSCAASGLILSAYAMGWYRQAPGKERELVAAISGSGGRTYYADSVKGRFTISRDNAKNTVYLQMNSLKPEDTAVYYCAAPYTYVGSYTYNYWGQGTQVTVSS | high polyreactivity
33 | QVQLVESGGGLVQAGGSLRLSCAASGLILSDYAMGWYRQAPGKERELVATITSVGTTKYADSVKGRFTISRDNAKNTVYLQMNSLKPEDTAVYYCAVEWYQGTTYSISYLYDYWGQGTQVTVSS | low polyreactivity
34 | QVQLVESGGGLVQAGGSLRLSCAASGLILVPNTMGWYRQAPGKERELVAAISYSGGGTYYADSVKGRFTISRDNAKNTVYLQMNSLKAEDTAVYYCAAYVKRESAPYGYWGHGTQVTVSS | low polyreactivity
35 | QVQLVESGGGLVQAGGSLRLSCAASGLILYYYAMGWYRQAPGKEREFVAAISGRGGSTYYADSVKGRFTISRDNAKNTVYLQMNSLKPEDTAVYYCAARVWYKYDHWGQGTQVTVSS | high polyreactivity
36 | QVQLVESGGGLVQAGGSLRLSCAASGLILYYYDMGWYRQAPGKERELVAAISWNGDDTYYADSVKGRFTISRDNAKNTVYLQMNSLKPEDTAVYYCAAEGPPQTDDYWGQGTQVTVSS | high polyreactivity
37 | QVQLVESGGGLVQAGGSLRLSCAASGLISYAYAMGWYRQAPGKERELVAAIRSSGSTYYADSVKGRFTISRDNAKNTVYLQMNSLKPEDTAVYYCAAYVWRRGDGYYYWGQGTQVTVSS | high polyreactivity
38 | QVQLVESGGGLVQAGGSLRLSCAASGLISYHYAMGWYRQAPGKERELVASISYTGGSTFYADSVKGRFTISRDNAKNTVYLQMNSLKPEDTAVYYCAAYRIWRPSYYYWGQGTQVTVSS | high polyreactivity
39 | QVQLVESGGGLVQAGGSLRLSCAASGLISYRNAMGWYRQAPGKERELVAAISSDGSTYYADSVKGRFTISRDNAKNTVYLQMNSLKPVDTAVYYCAADYREFDAYGAARTLDFDYWGQGTQVTVSS | low polyreactivity
40 | QVQLVESGGGLVQAGGSLRLSCAASGLIYVGNAMGWYRQAPGKERELVAAISSRGGRTYYADSVKGRFTISRDNAKNSVYLQMNSLKPEDSAVYYCNAANSQWGFEYWGQGTQVTVSS | high polyreactivity
41 | QVQLVESGGGLVQAGGSLRLSCAASGLMLGYYAMGWYRQAPGKERELGATIRRGASTYYADSVKGRLTISRDNAKNTVYLQMNSLKPEDTALYYCAAYGHQFQGDYNYWGPGTQVTVSS | low polyreactivity
42 | QVQLVESGGGLVQAGGSLRLSCAASGLNFRAYAMGWYRQAPGKERELVAAITWNGGSTNYADSVKGRFTISRDNAKNTVYLQMNSLKPEDTAVYYCNKYRISGLSKFYYWGQGTQVTVSS | high polyreactivity
43 | QVQLVESGGGLVQAGGSLRLSCAASGLPSKLMHMGWYRQAPGKERELVAAISSSGGRTYYADSVKGRITISRDNAKNTVYLQMNILKPEDTAVYYCAATARYRSYSASYYWGQGTQVTVSS | high polyreactivity

Reference: the nanobody polyreactivity screen of Harvey et al. (2022)
